# Where a chain is given by its changes, count along the chain named.
# T1: CT45A1 peptide on HLA (human)
# T1 peptide: SLIAGSAMSKA
# T2: HOXB13 peptide on HLA (human)
# T2 peptide: SLSERQITI
# T3: CT45A1 peptide on HLA (human)
# T3 peptide: KLVKELRCV
# T4: CT45A1 peptide on HLA (human)
# T4 peptide: KIFEMLEGV
# T5: HOXB13 peptide on HLA (human)
# T5 peptide: YLDVSVVQT
# T6: HTR3A peptide on HLA (human)
# T6 peptide: AILNVDEKNQV
# T7: CLDN6 peptide on HLA (human)
# T7 peptide: VLTSGIVFV
# T8: DCAF4L2 peptide on HLA (human)
# T8 peptide: ILQDGQFLV
# B1: TCR of SEQ ID NOs 345 and 346 (TCR, V domains shown)
# Valpha: KQEVTQIPAALSVPEGENLVLNCSFTDSAIYNLQWFRQDPGKGLTSLLLIQSSQREQTSGRLNASLDKSSGRSTLYIAASQPGDSATYLCAVRGYQKVTFGTGTKLQVIP
# Vbeta: NAGVTQTPKFQVLKTGQSMTLQCAQDMNHNSMYWYRQDPGMGLRLIYYSASEGTTDKGEVPNGYNVSRLNKREFSLRLESAAPSQTSVYFCASSEASGLRSPLHFGNGTRLTVT
# B2: TCR of SEQ ID NOs 369 and 370 (TCR, V domains shown)
# Valpha: B1 Valpha with R93G
# Vbeta: NAGVTQTPKFQVLKTGQSMTLQCAQDMNHNSMYWYRQDPGMGLRLIYYSASEGTTDKGEVPNGYNVSRSTTEDFPLRLLSAAPSQTSVYFCASSYQGGNEKLFFGSGTQLSVL
# B3: TCR of SEQ ID NOs 349 and 350 (TCR, V domains shown)
# Valpha: B1 Valpha with R93T, G94N, Y95A, Q96G, V98S, T102D, K105T, Q107T, I109K
# Vbeta: NAGVTQTPKFQVLKTGQSMTLQCAQDMNHEYMSWYRQDPGMGLRLIHYSVGAGITDQGEVPNGYNVSRSTTEDFPLRLESAAPSQTSVYFCASSEVPGPYGYTFGSGTRLTVV
# B4: TCR of SEQ ID NOs 365 and 366 (TCR, V domains shown)
# Valpha: B1 Valpha with R93G, Q96N, V98L, T99I, T102A, K105R, Q107A, I109H
# Vbeta: NAGVTQTPKFQVLKTGQSMTLQCAQDMNHNSMYWYRQDPGMGLRLIYYSASEGTTDKGEVPNGYNVSRSTTEDFPLRLLSAAPSQTSVYFCASSYQGTGELFFGEGSRLTVL
# B5: TCR of SEQ ID NOs 353 and 354 (TCR, V domains shown)
# Valpha: QKEVEQNSGPLSVPEGAIASLNCTYSDRGSQSFFWYRQYSGKSPELIMSIYSNGDKEDGRFTAQLNKASQYVSLLIRDSQPSDSATYLCAVNYRGALTFGSGTRLQVQP
# Vbeta: NAGVTQTPKFRILKIGQSMTLQCTQDMNHNYMYWYRQDPGMGLKLIYYSVGAGITDQGEVPNGYNVSRSTTEDFPLRLLSAAPSQTSVYFCASSYLRTGGNYGYTFGSGTRLTVV
# B6: TCR of SEQ ID NOs 357 and 358 (TCR, V domains shown)
# Valpha: KQEVTQIPAALSVPEGENLVLNCSFTDSAIYNLQWFRQDPGKGLTSLLLIQSSQREQTSGRLNASLDKSSGRSTLYIAASQPGDSATYLCAVKVWSNTGKLIFGQGTTLQVKP
# Vbeta: NAGVTQTPKFRILKIGQSMTLQCTQDMNHNYMYWYRQDPGMGLKLIYYSVGAGITDKGEVPNGYNVSRSTTEDFPLRLELAAPSQTSVYFCASSYEGDISYGYTFGFGTRLTVV
# B7: TCR of SEQ ID NOs 373 and 374 (TCR, V domains shown)
# Valpha: KQEVTQIPAALSVPEGENLVLNCSFTDSAIYNLQWFRQDPGKGLTSLLLIQSSQREQTSGRLNASLDKSSGRSTLYIAASQPGDSATYLCAANDPMDSSYKLIFGSGTRLLVRP
# Vbeta: NAGVTQTPKFRVLKTGQSMTLLCAQDMNHEYMYWYRQDPGMGLRLIHYSVGEGTTAKGEVPDGYNVSRLKKQNFLLGLESAAPSQTSVYFCASSPLDGWNYGYTFGSGTRLTVV
# B8: TCR of SEQ ID NOs 341 and 342 (TCR, V domains shown)
# Valpha: QKEVEQNSGPLSVPEGAIASLNCTYSDRGSQSFFWYRQYSGKSPELIMFIYSNGDKEDGRFTAQLNKASQYVSLLIRDSQPSDSATYLCAVGTSYDKVIFGPGTSLSVIP
# Vbeta: NAGVTQTPKFQVLKTGQSMTLQCAQDMNHEYMSWYRQDPGMGLRLIHYSVGAGITDQGEVPNGYNVSRSTTEDFPLRLLSAAPSQTSVYFCASSYGGGSGYTFGSGTRLTVV
# B9: TCR of SEQ ID NOs 375 and 376 (TCR, V domains shown)
# Valpha: KQEVTQIPAALSVPEGENLVLNCSFTDSAIYNLQWFRQDPGKGLTSLLLIQSSQREQTSGRLNASLDKSSGRSTLYIAASQPGDSATYLCAVRHDYKLSFGAGTTVTVRA
# Vbeta: B8 Vbeta with Y95R, G96I, G98Q, S99R, G100A, Y101S, T102F
# B10: TCR of SEQ ID NOs 371 and 372 (TCR, V domains shown)
# Valpha: B9 Valpha with K97Q
# Vbeta: B8 Vbeta with Y95R, G96I, G98Q, S99R, G100A, Y101S, T102F
# B11: TCR of SEQ ID NOs 377 and 378 (TCR, V domains shown)
# Valpha: KQEVTQIPVALSVPEGENLVLNCSFTDSAIYNLQWFRQDPGKGLTSLLLIQSSQREQTSGRLNASLDKSSGRSTLYIAASQPGDSATYLCAVTDSWGKLQFGAGTQVVVTP
# Vbeta: NAGVTQTPKFQVLKTGQSMTLQCAQDMNHNSMYWYRQDPGMGLRLIYYSASEGTTDKGEVPNGYNVSRLNKREFSLRLESAAPSQTSLYFCASSEGPADTYGYTFGSGTRLTVV
# B12: TCR of SEQ ID NOs 337 and 338 (TCR, V domains shown)
# Valpha: KQEVTQIPAALSVPEGENLVLNCSFTDSAIYNLQWFRQDPGKGLTSLLLIQSSQREQTSGRLNASLDKSSGRSTLYIAASQPGDSATYLCAVRHNQGGKLIFGQGTELSVKP
# Vbeta: NAGVTQTPKFRVLKTGQSMTLLCAQDMNHEYMYWYRQDPGMGLRLIHYSVGAGITDQGEVPNGYNVSRLNKREFSLRLESAAPSQTSVYFCASSDRGVYEQYFGPGTRLTVT
# B13: TCR of SEQ ID NOs 361 and 362 (TCR, V domains shown)
# Valpha: KQEVTQIPAALSVPEGENLVLNCSFTDSAIYNLQWFRQDPGKGLTSLLLIQSSQREQTSGRLNASLDKSSGRSTLYIAASQPGDSATYLCAVDTGRRALTFGSGTRLQVQP
# Vbeta: NAGVTQTPKFQVLKTGQSMTLQCAQDMNHEYMYWYRQDPGMGLRLIHYSVGEGTTAKGEVPDGYNVSRLKKQNFLLGLESAAPSQTSVYFCASRDQINEKLFFGSGTQLSVL
# B14: TCR of SEQ ID NOs 363 and 364 (TCR, V domains shown)
# Valpha: B13 Valpha with D93N, T94L, R96A, R97Q, A98K, T100V, S103Q, Q108T, V109I, Q110N
# Vbeta: NAGVTQTPKFRILKIGQSMTLQCTQDMNHNYMYWYRQDPGMGLKLIYYSVGAGITDKGEVPNGYNVSRSTTEDFPLRLELAAPSQTSVYFCASSSFDRDEAFFGQGTKLTVV
# B15: TCR of SEQ ID NOs 339 and 340 (TCR, V domains shown)
# Valpha: KQEVTQIPAALSVPEGENLVLNCSFTDSAIYNLQWFRQDPGKGLTSLLLIQSSQREQTSGRLNASLDKSSGRSTLYIAASQPGDSATYLCAVRPLGGGYQKVTFGTGTKLQVIP
# Vbeta: NAGVTQTPKFRVLKTGQSMTLQCAQDMNHNSMYWYRQDPGMGLRLIYYSASEGTTDKGEVPNGYNVSRLNKREFSLRLESAAPSQTSVYFCASSDTGTSVTGELFFGEGSRLTVL
# B16: TCR of SEQ ID NOs 347 and 348 (TCR, V domains shown)
# Valpha: KQEVTQIPAALSVPEGENLVLNCSFTDSAIYNLQWFRQDPGKGLTSLLLIQSSQREQTSGRLNASLDKSSGRSTLYIAASQPGDSATYLCAVRTTDSWGKLQFGAGTPVVVTP
# Vbeta: NAGVTQTPKFQVLKIGQSMTLQCTQDMNHNYMYWYRQDPGMGLKLIYYSVGAGITDKGEVPNGYNVSRSTTEDFPLRLELAAPSQTSVYFCASSSPLGKQYFGPGTRLTVL
# B17: TCR of SEQ ID NOs 351 and 352 (TCR, V domains shown)
# Valpha: KQEVTQIPVALSVPEGENLVLNCSFTDSAIYNLQWFRQDPGKGLTSLLLIQSSQREQTSGRLNASLDKSSGRSTLYIAASQPGDSATYLCALRGEADSWGKLQFGAGTQVVVTP
# Vbeta: B16 Vbeta with I15T, T24A, K99E, L111T
# B18: TCR of SEQ ID NOs 367 and 368 (TCR, V domains shown)
# Valpha: KQEVTQIPAALSVPEGENLVLNCSFTDSAIYNLQWFRQDPGKGLTSLLLIQSSQREQTSGRLNASLDKSSGRSTLYIAASQPGDSATYLCAVRPHGQNFVFGPGTRLSVLP
# Vbeta: NAGVTQTPKFRVLKTGQSMTLLCAQDMNHEYMYWYRQDPGMGLRLIHYSVGEGTTDKGEVPNGYNVSRLNKREFSLRLESAAPSQTSVYFCASSSLARETQYFGPGTRLLVL
# B19: TCR of SEQ ID NOs 359 and 360 (TCR, V domains shown)
# Valpha: KQEVTQIPAALSVPEGENLVLNCSFTDSAIYNLQWFRQDPGKGLTSLLLIQSSQREQTSGRLNASLDKSSGRSTLYIAASQPGDSATYLCAVRPTRGDSWGKLQFGAGTQVVVTP
# Vbeta: NAGVTQTPKFQVLKTGQSMTLQCAQDMNHNSMYWYRQDPGMGLRLIYYSASEGTTDKGEVPNGYNVSRLNKREFSLRLESAAPSQTSVYFCASSYSLLGNEAFFGQGTRLTVV
# B20: TCR of SEQ ID NOs 343 and 344 (TCR, V domains shown)
# Valpha: QKEVEQNSGPLSVPEGAIASLNCTYSDRGSQSFFWYRQYSGKSPELIMFIYSNGDKEDGRFTAQLNKASQYVSLLIRDSQPSDSATYLCAVGGAGGYQKVTFGTGTKLQVIP
# Vbeta: NAGVTQTPKFQVLKTGQSMTLQCAQDMNHEYMSWYRQDPGMGLRLIHYSVGAGITDQGEVPNGYNVSRSTTEDFPLRLLSAAPSQTSVYFCASSYSGNEQYFGPGTRLTVT
# B21: TCR of SEQ ID NOs 355 and 356 (TCR, V domains shown)
# Valpha: B17 Valpha with V9A, L92V, R93W, G94R, E95T, A96T
# Vbeta: NAGVTQTPKFRILKIGQSMTLQCTQDMNHNYMYWYRQDPGMGLKLIYYSVGAGITDKGEVPNGYNVSRSTTEDFPLRLLSAAPSQTSVYFCASSYGQGYGYTFGSGTRLTVV
# What was measured:
# Assay in all cases: binding, other
# CT45A1 peptide on HLA [1] = target: T1, CT45A1 peptide on HLA
# HOXB13 peptide on HLA [2] = target: T2, HOXB13 peptide on HLA
# CT45A1 peptide on HLA [3] = target: T3, CT45A1 peptide on HLA
# CT45A1 peptide on HLA [4] = target: T4, CT45A1 peptide on HLA
# HOXB13 peptide on HLA [5] = target: T5, HOXB13 peptide on HLA
# HTR3A peptide on HLA = target: T6, HTR3A peptide on HLA
# CLDN6 peptide on HLA = target: T7, CLDN6 peptide on HLA
# DCAF4L2 peptide on HLA = target: T8, DCAF4L2 peptide on HLA
binder,measurement,setting,value
B1,binding result,CT45A1 peptide on HLA [1],recognises
B2,binding result,HOXB13 peptide on HLA [2],recognises
B3,binding result,CT45A1 peptide on HLA [3],recognises
B4,binding result,HOXB13 peptide on HLA [2],recognises
B5,binding result,CT45A1 peptide on HLA [4],recognises
B6,binding result,CT45A1 peptide on HLA [4],recognises
B7,binding result,HOXB13 peptide on HLA [5],recognises
B8,binding result,CT45A1 peptide on HLA [1],recognises
B9,binding result,HOXB13 peptide on HLA [5],recognises
B10,binding result,HOXB13 peptide on HLA [5],recognises
B11,binding result,HTR3A peptide on HLA,recognises
B12,binding result,CLDN6 peptide on HLA,recognises
B13,binding result,DCAF4L2 peptide on HLA,recognises
B14,binding result,DCAF4L2 peptide on HLA,recognises
B15,binding result,CLDN6 peptide on HLA,recognises
B16,binding result,CT45A1 peptide on HLA [3],recognises
B17,binding result,CT45A1 peptide on HLA [3],recognises
B18,binding result,HOXB13 peptide on HLA [2],recognises
B19,binding result,DCAF4L2 peptide on HLA,recognises
B20,binding result,CT45A1 peptide on HLA [1],recognises
B21,binding result,CT45A1 peptide on HLA [4],recognises

# — patent publication US20230346885A1 (published 2023)
